According to article PMC3425481, “Differential Regulation of Smad3 and of the Type II Transforming Growth Factor-β Receptor in Mitosis: Implications for Signaling” (PLoS ONE, 2012):

Molecular target: T1, Smad3 phosphorylated at the C-terminus (pSmad3C) (human (endogenous in ES-2), UniProt P84022 1-425, phospho-serines 423/425 (C-terminal SSXS motif))
T1 construct: Smad3, endogenous in human ES-2 ovarian cancer cells, precipitated with α-pSmad3C (raised against phospho-serines 423/425 of Smad3); The α-pSmad3C antibody cross-reacts with C-terminus phosphorylated Smad2; In 2ME2-arrested cells Smad3 is also phosphorylated on threonine 179, but pSmad3(179) was detected inconsistently in the immunoprecipitates; also called C-terminally phosphorylated Smad3; …
Experiment: co-IP; immunoprecipitation with α-pSmad3C (overnight, 4°C) and protein A-sepharose from lysates of 10^8 ES-2 cells treated with TGF-β1 (1 h) or 2ME2 (16 h); 420 mM NaCl, 50 mM Hepes pH 7.8, 5 mM EDTA, 1% NP-40, 3% DTT; blots with α-Ski, α-Smurf2, α-tSmad2/3; control: sepharose beads alone
Conditions: partners not purified

T1 sequence (P84022 whole entry): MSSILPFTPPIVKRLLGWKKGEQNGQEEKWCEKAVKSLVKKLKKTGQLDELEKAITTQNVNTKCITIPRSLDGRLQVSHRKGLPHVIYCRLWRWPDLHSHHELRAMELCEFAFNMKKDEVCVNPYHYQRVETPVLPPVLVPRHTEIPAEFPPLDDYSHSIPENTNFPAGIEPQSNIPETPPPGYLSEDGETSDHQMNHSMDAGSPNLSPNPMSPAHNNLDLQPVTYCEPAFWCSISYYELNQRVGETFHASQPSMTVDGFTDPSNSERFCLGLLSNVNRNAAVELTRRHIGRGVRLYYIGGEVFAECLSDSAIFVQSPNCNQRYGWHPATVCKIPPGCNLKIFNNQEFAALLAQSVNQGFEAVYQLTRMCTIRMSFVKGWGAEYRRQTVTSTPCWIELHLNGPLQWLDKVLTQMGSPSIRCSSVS

B1: Ski (natural protein, human (endogenous in ES-2), UniProt P12755 1-728, looked up)
chain: MEAAAGGRGCFQPHPGLQKTLEQFHLSSMSSLGGPAAFSARWAQEAYKKESAKEAGAAAVPAPVPAATEPPPVLHLPAIQPPPPVLPGPFFMPSDRSTERCETVLEGETISCFVVGGEKRLCLPQILNSVLRDFSLQQINAVCDELHIYCSRCTADQLEILKVMGILPFSAPSCGLITKTDAERLCNALLYGGAYPPPCKKELAASLALGLELSERSVRVYHECFGKCKGLLVPELYSSPSAACIQCLDCRLMYPPHKFVVHSHKALENRTCHWGFDSANWRAYILLSQDYTGKEEQARLGRCLDDVKEKFDYGNKYKRRVPRVSSEPPASIRPKTDDTSSQSPAPSEKDKPSSWLRTLAGSSNKSLGCVHPRQRLSAFRPWSPAVSASEKELSPHLPALIRDSFYSYKSFETAVAPNVALAPPAQQKVVSSPPCAAAVSRAPEPLATCTQPRKRKLTVDTPGAPETLAPVAAPEEDKDSEAEVEVESREEFTSSLSSLSSPSFTSSSSAKDLGSPGARALPSAVPDAAAPADAPSGLEAELEHLRQALEGGLDTKEAKEKFLHEVVKMRVKQEEKLSAALQAKRSLHQELEFLRVAKKEKLREATEAKRNLRKEIERLRAENEKKMKEANESRLRLKRELEQARQARVCDKGCEAGRLRAKYSAQIEDLQVKLQHAEADREQLRADLLREREAREHLEKVVKELQEQLWPRARPEAAGSEGAAELEP
notes: Ski, endogenous in human ES-2 ovarian cancer cells, detected with α-Ski (Santa Cruz); source: endogenous, ES-2 cell lysate
- fold increase of the Ski/tSmad3 ratio in the anti-pSmad3C immunoprecipitate, 2ME2-arrested cells relative to TGF-β1-activated cells: 7.7 ± 1.7 fold
